Experimental data taken from article PMC9569350, “Antarctic aldehyde dehydrogenase from Flavobacterium PL002 as a potent catalyst for acetaldehyde determination in wine” (Scientific Reports, 2022).

Columns and labels:
CC=O = experiment: purified protein; settings: 10 mM NAD+ (saturating), 100 mM potassium phosphate pH 7.5, 25 °C, free enzyme
[1] = test system: NC(=O)c1ccc[n+]([C@@H]2O[C@H](COP(=O)(O)OP(=O)(O)OC[C@H]3O[C@@H](n4cnc5c(N)ncnc54)[C@H](O)[C@@H]3O)[C@@H](O)[C@H]2O)c1; experiment: purified protein; settings: 10 mM acetaldehyde (saturating), 100 mM potassium phosphate pH 7.5, 25 °C, free enzyme, varied: cofactor

**Q.** With S2-ALDH (Flavobacterium sp. PL002) as the substance, how does the Km (CC=O) read?
**A.** The Km was 1880 ± 700 µM.

**Q.** What about the Vmax (CC=O) of the same substance?
**A.** Its Vmax is 2.64 µmol/min/mg.

**Q.** What about the kcat (CC=O) of the same substance?
**A.** Its kcat is 0.432 ± 0.025 s⁻¹.

**Q.** And the kcat/Km (CC=O)?
**A.** Its kcat/Km is 230 ± 85.2 M⁻¹ s⁻¹.

**Q.** What about the Km [1] of the same substance?
**A.** Its Km is 2870 ± 480 µM.

**Q.** And the Vmax [1]?
**A.** The Vmax was 0.74 µmol/min/mg.

**Q.** What about the kcat [1] of the same substance?
**A.** Its kcat is 0.121 ± 0.026 s⁻¹.

**Q.** What about the kcat/Km [1] of the same substance?
**A.** Its kcat/Km is 42.2 ± 7.05 M⁻¹ s⁻¹.
